Assay [1] deals with Protease C (SEQ ID NO 6) variant L134V (Lederbergia lenta (Bacillus lentus)) (UniProt P29600). The experiment in a line: Ki fitted from Suc-AAPF-pNA activity in Model B detergent; IF relative to SEQ ID NO 6.
The target in assay [2] is Protease C (SEQ ID NO 6) variant N60A (Lederbergia lenta (Bacillus lentus)) (UniProt P29600). Described as above.
The target of assay [3] is Protease C (SEQ ID NO 6) variant N60F (Lederbergia lenta (Bacillus lentus)) (UniProt P29600). The assay is described as above.
The target of assay [4] is Protease C (SEQ ID NO 6) variant N60F + S100I (Lederbergia lenta (Bacillus lentus)) (UniProt P29600). The assay is described as above.
The target in assay [5] is Protease C (SEQ ID NO 6) variant N60H (Lederbergia lenta (Bacillus lentus)) (UniProt P29600). Described as above.
The target in assay [6] is Protease C (SEQ ID NO 6) variant N60H + S100I (Lederbergia lenta (Bacillus lentus)) (UniProt P29600). The description is as above.
Assay [7] has as its target Protease C (SEQ ID NO 6) variant S100I (Lederbergia lenta (Bacillus lentus)) (UniProt P29600). The assay is described as above.
The target of assay [8] is Protease C (SEQ ID NO 6) variant S100I + L134V (Lederbergia lenta (Bacillus lentus)) (UniProt P29600). The description is as above.
In assay [9] the target is Protease C (SEQ ID NO 6) variant S100I + Y166F (Lederbergia lenta (Bacillus lentus)) (UniProt P29600). The description is as above.
Assay [10] has as its target Protease C (SEQ ID NO 6) variant V103A (Lederbergia lenta (Bacillus lentus)) (UniProt P29600). The assay is described as above.
Assay [11] deals with Protease C (SEQ ID NO 6) variant Y166F (Lederbergia lenta (Bacillus lentus)) (UniProt P29600). Described as above.
In assay [12] the target is TY145 (SEQ ID NO 3) variant I150S + S173P + S175P + F180Y. Description: Ki fitted from Suc-AAPF-pNA activity in Model B detergent; IF relative to SEQ ID NO 3 comprising S173P + S175P + F180Y.
The target of assay [13] is TY145 (SEQ ID NO 3) variant I150V + S173P + S175P + F180Y. Described as above.
Assay [14] deals with TY145 (SEQ ID NO 3) variant K146A + S173P + S175P + F180Y. The assay is described as above.
Assay [15] has as its target TY145 (SEQ ID NO 3) variant K146T + S173P + S175P + F180Y. The description is as above.
Assay [16] concerns the target TY145 (SEQ ID NO 3) variant S111I + S173P + S175P + F180Y. Described as above.
Assay [17] deals with TY145 (SEQ ID NO 3) variant S114Q + S173P + S175P + F180Y. The assay is described as above.
Assay [18] deals with TY145 (SEQ ID NO 3) variant S173P + S175P + F180Y + G182A. Described as above.
Chain of TY145 (SEQ ID NO 3) variant S173P + S175P + F180Y (chain, as listed by the source S173P S175P F180Y S173P S175P F180Y limits assumed): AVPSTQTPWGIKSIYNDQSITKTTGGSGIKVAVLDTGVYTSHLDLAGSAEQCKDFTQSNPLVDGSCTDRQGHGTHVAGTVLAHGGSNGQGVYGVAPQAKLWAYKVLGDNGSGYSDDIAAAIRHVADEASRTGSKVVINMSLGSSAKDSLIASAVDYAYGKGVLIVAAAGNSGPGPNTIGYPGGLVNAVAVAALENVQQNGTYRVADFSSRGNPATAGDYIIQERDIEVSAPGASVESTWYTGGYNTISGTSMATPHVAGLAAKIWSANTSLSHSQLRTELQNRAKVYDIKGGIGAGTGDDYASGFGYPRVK
For assay [19], the target named is TY145 (SEQ ID NO 3) variant S173P + S175P + F180Y + G182S. Described as above.
In assay [20] the target is TY145 (SEQ ID NO 3) variant S173P + S175P + F180Y + L184Y. The description is as above.
The target in assay [21] is TY145 (SEQ ID NO 3) variant S173P + S175P + I178P + F180Y. The description is as above.
Chain of TY145 (SEQ ID NO 3) variant S173P + S175P (chain, as listed by the source S173P S175P S173P S175P limits assumed): as the sequence (chain, as listed by the source S173P S175P F180Y S173P S175P F180Y limits assumed) above, with Y180F counted along it
In assay [22] the target is TY145 (SEQ ID NO 3) variant S173P + S175P. Description: Ki fitted from Suc-AAPF-pNA activity in Model B detergent; IF relative to SEQ ID NO 3 comprising S173P + S175P (the reference itself).
Assay [23] addresses TY145 (SEQ ID NO 3) variant S173P + S175P + F180Y. Description: Ki fitted from Suc-AAPF-pNA activity in Model B detergent; IF relative to SEQ ID NO 3 comprising S173P + S175P + F180Y (the reference itself).

On to “Inhibitor 1: Cbz-Gly-Ala-NHCH(CH2C6H4pOH)C(OH)(SO3Na)-H (peptide)”, for which the IF (binding constant improvement factor, relative Ki) came to 2.89 in [1]; 1.22 in assay [2]; 3.25 in assay [3]; 11.3 in assay [4]; 1.24 in assay [5]; 6.65 in assay [6]. The IF (binding constant improvement factor, relative Ki) was 6.46 in [7]; 15.1 in assay [8]; 11.3 in assay [9]; 1.49 in assay [10]; 1.31 in assay [11]; 5.7 in assay [12]. Moreover, the IF (binding constant improvement factor, relative Ki) in assay [13] was found to be 1.8; in assay [14] it was 3.72; in [15] it was 15.9; in [16] it was 1.12; in assay [17], 2.03; in assay [18], 2.49. For the same substance, the IF (binding constant improvement factor, relative Ki) in [19] is 1.69; in assay [20] it was 3.91; in assay [21], 2.22; in assay [22] it was 1; in assay [23], 1.

(Values after US20170342349A1, “STABILIZED ENZYME COMPOSITIONS” (NOVOZYMES A/S, priority 2014, published 2017).)
